Results: US20110123532A1 (ONCOMED PHARMACEUTICALS, published 2011)

Tests used:
[1] = target: T1, human VEGF (human, UniProt P15692-4 27-191); experiment: SPR (Biacore), VEGF surface
T1 construct: Immobilised on a CM5 chip for Biacore; the same name is used for the rhVEGF of the HUVEC assay; also called hVEGF; rhVEGF

[2] = target: T1, human VEGF; experiment: SPR (Biacore), VEGF surface; reference 219R0302 IgG
[3] = target: T2, full length human DLL4 on transfected human 293 HEK cells (human, UniProt Q9NR61 27-685); experiment: flow cytometry on human 293 HEK cells transfected with full length human DLL4 and GFP; goat anti-human IgG H/L-PE
T2 construct: whole, on cells; also called hDLL4 transfected cells; human DLL4 transfected cells

[4] = target: T1, human VEGF; experiment: Biacore dual targeting assay, high density VEGF surface, antibody first, then DLL4-Fc

T1 sequence (P15692 other isoform, or with tags, fused parts or gaps limits assumed): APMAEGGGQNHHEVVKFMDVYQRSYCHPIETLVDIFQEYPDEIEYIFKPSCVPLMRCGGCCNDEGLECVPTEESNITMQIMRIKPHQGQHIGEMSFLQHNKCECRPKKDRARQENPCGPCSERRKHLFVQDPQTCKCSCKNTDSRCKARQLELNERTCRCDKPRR

Kd [1]	fold weaker binding affinity than 219R0302 [2]	binding result [4]	Binder	binding result [3]
7.6 nM	~4 fold	–	219R0302-21M18 single gene bispecific antibody (SGBSP) (bispecific antibody, human IgG2, kappa, Heterodimer of two single-gene chains, anti-VEGF arm (13A) and anti-DLL4 arm (13B), IgG2; also called 219R0302_21M18 SGBSP; 219R0302-21M18 SGBSP) chain 1: not shown chain 2: DIVMTQSPDSLAVSLGERATISCRASESVDNYGISFMKWFQQKPGQPPKLLIYAASNQGSGVPDRFSGSGSGTDFTLTISSLQAEDVAVYYCQQSKEVPWTFGGGTKVEIKRTVAAPSVFIFPPSDEQLKSGTASVVCLLNNFYPREAKVQWKVDNALQSGNSQESVTEQDSKDSTYSLSSTLTLSKADYEKHKVYACEVTHQGLSSPVTKSFNRGECGGGGSGGGGSGGGGSGGGGSGGGGSGGGGSQVQLVQSGAEVKKPGASVKISCKASGYSFTAYYIHWVKQAPGQGLEWIGYISSYNGATNYNQKFKGRVTFTTDTSTSTAYMELRSLRSDDTAVYYCARDYDYDVGMDYWGQGTLVTVSSASTKGPSVFPLAPCSRSTSESTAALGCLVKDYFPEPVTVSWNSGALTSGVHTFPAVLQSSGLYSLSSVVTVPSSNFGTQTYTCNVDHKPSNTKVDKTVERKCCVECPPCPAPPVAGPSVFLFPPKPKDTLMISRTPEVTCVVVDVSHEDPEVQFNWYVDGVEVHNAKTKPREEQFNSTFRVVSVLTVVHQDWLNGKEYKCKVSNKGLPAPIEKTISKTKGQPREPQVYTLPPSREEMTKNQVSLTCLVEGFYPSDIAVEWESNGQPENNYKTTPPMLDSDGSFFLYSELTVDKSRWQQGNVFSCSVMHEALHNHYTQKSLSLSPGK	–
–	–	binds	Homo 13A (219R02) (antibody, human IgG2, kappa, V domains shown, also called 219R02 13A Homo; 219R0202 HC (with 13A mutation) expressed only with 21M18 LC) VH: QVQLKQSGAELVKPGASVKLSCKASGYTFTNYWMHWVKLRPGQGFEWIGDINPSNGGTSYNEKFKRKATLTVDKSSSTAYMQLSSLTSEDSAVYYCTIHYYDNSYAMDYWGQGTSVTVSS VL: DIVMTQSPDSLAVSLGERATISCRASESVDNYGISFMKWFQQKPGQPPKLLIYAASNQGSGVPDRFSGSGSGTDFTLTISSLQAEDVAVYYCQQSKEVPWTFGGGTKVEIKR	no binding (tested: log(nM) about 1.8 (about 60 nM))
